The values that follow come from article PMC10397247.

Experiment in all cases: two-hybrid library CCmax;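 further: natural log of median RNA to DNA barcode read ratio; higher means stronger binding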
What all share (conditions): mean of both orientations

One assay deals with T1, Core_INNI-es_KKKE.
T1 chain: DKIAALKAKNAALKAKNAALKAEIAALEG

Another assay concerns the target T2, Core_NINI-es_KEKE.
T2 chain: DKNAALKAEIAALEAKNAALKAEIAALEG

A further assay deals with T3, Core_NINI-es_KEEE.
T3 chain: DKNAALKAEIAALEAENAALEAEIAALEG

A further assay has as its target T4, Core_IIII-es_KKEK.
T4 chain: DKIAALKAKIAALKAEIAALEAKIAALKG

In the case of DEIAALEAENAALEAENAALEAKIAALKG [Core_INNI-es_EEEK], the interaction score in the assay with Core_INNI-es_KKKE turned out to be 2.15. In turn, DENAALEAKIAALKAENAALEAKIAALKG [Core_NINI-es_EKEK] yielded an interaction score in the assay with Core_NINI-es_KEKE of 1.98.

The molecule DENAALEAKIAALKAKNAALKAKIAALKG [Core_NINI-es_EKKK] displayed an interaction score with Core_NINI-es_KEEE of 2.35. As to DEIAALEAEIAALEAKIAALKAEIAALEG [Core_IIII-es_EEKE], in the assay with Core_IIII-es_KKEK, the interaction score worked out at 2.36.
